Blank lines part the entries; values can stand above or below the substance they belong to.
Columns and labels:
[1] = biological target: Masked SpyCatcher003 (N-terminal His6 tag-SpyCatcher003-TEV protease cleavage site-SpyTag003 D117A); assay: covalent coupling (isopeptide bond) followed by SDS-PAGE and densitometry; Masked SpyCatcher003, before or after cleavage by superTEV protease, with SpyTag003-MBP; both partners at 5 µM, 37 °C, PBS pH 7.4, time course
[2] = biological target: Unmasked Catcher (Masked SpyCatcher003 after cleavage by superTEV protease); assay: as above
[3] = biological target: DoubleCatcher (N-terminal His6 tag-TEV protease cleavage site-two SpyCatcher003 moieties connected by a (GSG)3 spacer-TEV protease cleavage site-SpyTag003 DA); assay: covalent coupling (isopeptide bond) followed by SDS-PAGE and densitometry; DoubleCatcher 2.5 µM with SpyTag003-mClover3 5 µM, no TEV protease, PBS pH 7.4, 37 °C, time course
[4] = biological target: unmasked DoubleCatcher:SpyTag003-MBP; assay: covalent coupling (isopeptide bond) followed by SDS-PAGE and densitometry; step 1: DoubleCatcher with two-fold excess SpyTag003-MBP for 2 h, excess removed on bead-immobilized SpyCatcher003; step 2: superTEV protease at 34 °C, then 2 µM of the cleaved construct with 10 µM SUMO-SpyTag003, time course

Substance: SpyTag003 linked to maltose-binding protein (MBP)
percent reacted after 60 min [1]: 3.7%
half-time of reaction (t1/2) [2]: 2.7 min
percent reacted [2]: > 99%

Substance: SpyTag003 linked to the green fluorescent protein mClover3
half-time of reaction (t1/2) [3]: 0.58 min
percent reacted after 1 h [3]: 91%

half-time of reaction (t1/2) [4]: 3.6 min
percent reacted [4]: > 98%
Substance: SpyTagged Small Ubiquitin-like Modifier (N-terminal His6 tag-SUMO protein-SpyTag003)
